In the test the target is T1, Human li p10 (human).
T1 construct: also called Ii p10; li p10 peptide
T1 chain: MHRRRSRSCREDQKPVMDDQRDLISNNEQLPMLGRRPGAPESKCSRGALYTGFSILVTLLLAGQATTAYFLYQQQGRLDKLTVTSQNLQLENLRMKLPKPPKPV
In words: flow cytometry on fixed and permeabilised human PBMC treated with Cathepsin S inhibitor 1. As for the experimental part: FIG. 1: Detection of Ii p10 expression on B cells and T cells using a neoepitope antibody. PBMCs isolated from blood donation of a healthy donor (R213) were incubated for 20 h with increasing concentrations of Cathepsin S inhibitor 1 or vehicle. Ii p10 detection on B cells (CD20+) and T cells (CD3+) was determined by flow cytometry using a different neoepitope antibody 7B8 (black).
In general terms: In flow cytometry, cells or beads pass a laser one at a time.

We go through one molecule from patent US20170192000A1 (Hoffmann-La Roche, published 2017).

B1: anti li p10 antibody 7B8 (antibody, V domains shown)
VH: QSLEESGGRLVTPGTPLTLTCTVSGIDLSTYAMTWVRQAPGKGLEWIGIIYNNGVVVYASWAKGRFTISKTSTTVDLKMTSPTTEDTATYFCCRGYYDGSVNVWGPGTLVTVSL
VL: QVLTQTASSVSAVVGGTVTISCQSSQSVYNDNVLSWFQQKPGQPPKLLIYLASTLASGVPSRFSGSGSGTQFTLTISDLECDDAAAYYCLGGYTGDMYAFGGGTEVVV
notes: Used unlabeled at 10 ug/mL and detected with PE-conjugated goat anti-rabbit IgG; also called anti-p10 antibody
Consider B1, for which the binding result is on record as “binds”.
